Laboratory results: the supplement of paper PMC7877785
± gives the uncertainty stated by the source.

Assay: self-splicing fitness, log relative to wild type (ln ratio); higher = more splicing; Tetrahymena group I intron in knt gene, E. coli kanamycin selection, DiMSum; sequences stand for … in CUCUCU…GGAGGGAAAAGUUAUCAGGCAUGCACCUGGUAGCUAGUCUUUAAACCAAUAGAUUGCAUCGGUUUAAAAGGCAAGACCGUCAAAUUGCGGGAAAGGGGUCAACAGCCGUUCAGUACCAAGUCUCAGGGGAAACUUUGAGAUGGCCUUGCAAAGGGUAUGGUAAUAAGCUGACGGACAUGGUCCUAACCACGCAGCCAAGUCCUAAGUCAACAGAUCUUCUGUUGAUAUGGAUGCAGUUCACAGACUAAAUGUCGGUCGGGGAAGAUGUAUUCUUCUCAUAAGAUAUAGUCGGACCUCUCCUUAAUGGGAGCUAGCGGAUGAAGUGAUGCAACACUGGAGCCGCUGGGAACUAAUUUGUAUGCGAAAGUAUAUUGAUUAGUUUUGGAGUACUCGUGGUCG
Method in brief: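 Fitness was computed with DiMSum as the error-weighted combination of replicate fold changes, kanamycin versus none, each normalised to wild type. The library randomised all eight intron nucleotides of the P1ex region, with the intron placed in the knt kanamycin-resistance gene on pET-22b(+) in E. coli BL21(DE3). Six replicate transformations were grown overnight at 37°C or 30°C on LB agar with or without 25 μg/mL kanamycin, plus 100 μg/mL carbenicillin, 50 μM IPTG and 0.2% rhamnose. Pooled colonies were amplicon-sequenced on an Illumina HiSeq 2500.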

| Sequence | self-splicing fitness (ln) (30 °C) | self-splicing fitness (ln) (37 °C) |
| --- | --- | --- |
| GGCCAGCAAUAUUACGAAGA | -3.15 ± 0.22 | -2.85 ± 0.27 |
| GGCCAGCAAUAUUACGAAGU | -2.41 ± 0.39 | -1.26 ± 0.26 |
| GGCCAGCAAUAUUACGACGA | -2.9 ± 0.16 | -1.98 ± 0.12 |
| GGCCAGCAAUAUUACGAGGG | -3.58 ± 0.16 | -1.75 ± 0.17 |
| GGCCAGCAAUAUUACGCACA | -0.344 ± 0.16 | -0.177 ± 0.17 |
| GGCCAGCAAUAUUACGGGAC | -2.68 ± 0.12 | -1.21 ± 0.15 |
| GGCCAGCAAUAUUACGGGAU | -1.73 ± 0.097 | -0.354 ± 0.1 |
| GGCCAGCAAUAUUACGGGUU | -3.08 ± 0.17 | -2.06 ± 0.19 |
| GGCCAGCAAUAUUACGGUCA | -0.963 ± 0.1 | -0.389 ± 0.1 |
| GGCCAGCAAUAUUACGGUCU | -2.82 ± 0.15 | -2.78 ± 0.3 |
| GGCCAGCAAUAUUACGUACC | -0.685 ± 0.13 | 1.43 ± 0.17 |
| GGCCAGCAAUAUUACGUCAU | -1.7 ± 0.063 | -1.27 ± 0.08 |
| GGCCAGCAAUAUUACGUGUA | -2.41 ± 0.083 | -1.51 ± 0.1 |
| GGCCAGCAAUAUUACGUUAG | -3.38 ± 0.26 | -2.82 ± 0.34 |
| GGCCAGCAAUAUUACGUUCA | -3.23 ± 0.23 | -0.905 ± 0.19 |
| GGCGAGCAAUAUUACGAAAG | -3.27 ± 0.3 | -2.77 ± 0.24 |
| GGCGAGCAAUAUUACGACCG | -0.74 ± 0.28 | -0.371 ± 0.26 |
| GGCGAGCAAUAUUACGACGC | -1.89 ± 0.29 |  |
| GGCGAGCAAUAUUACGAGGG | -0.768 ± 0.24 |  |
| GGCGAGCAAUAUUACGAUCU | -0.834 ± 0.12 | 0.229 ± 0.14 |
| GGCGAGCAAUAUUACGCAAA | -2.13 ± 0.19 | -2.01 ± 0.14 |
| GGCGAGCAAUAUUACGCAAU | -2.22 ± 0.12 | -0.788 ± 0.13 |
| GGCGAGCAAUAUUACGCACU | -2.83 ± 0.34 | -1.07 ± 0.28 |
| GGCGAGCAAUAUUACGCCUC | -1.67 ± 0.33 |  |
| GGCGAGCAAUAUUACGCUAU | -2.55 ± 0.21 | -1.11 ± 0.18 |

| Sequence | self-splicing fitness (ln) (30 °C) | self-splicing fitness (ln) (37 °C) |
| --- | --- | --- |
| GGCGAGCAAUAUUACGGACU | -0.419 ± 0.077 | -0.219 ± 0.13 |
| GGCGAGCAAUAUUACGGAGG | -2.52 ± 0.34 | -1.9 ± 0.45 |
| GGCGAGCAAUAUUACGGCGG | -2 ± 0.39 | -1.28 ± 0.37 |
| GGCGAGCAAUAUUACGGCGU | -2.49 ± 0.21 | -1.1 ± 0.2 |
| GGCGAGCAAUAUUACGGGCU | -2.07 ± 0.36 | -1.23 ± 0.28 |
| GGCGAGCAAUAUUACGGUGG | -3.31 ± 0.24 | -2.07 ± 0.22 |
| GGCGAGCAAUAUUACGUAAC | -2.52 ± 0.19 | -0.781 ± 0.13 |
| GGCGAGCAAUAUUACGUCCA | -1.97 ± 0.14 | -1.02 ± 0.12 |
| GGCGAGCAAUAUUACGUGGG | -3.57 ± 0.44 | -1.44 ± 0.27 |
| GGCGAGCAAUAUUACGUUAU | -3.17 ± 0.17 | -1.3 ± 0.16 |
| GGCUAGCAAUAUUACGAAAA | -1.06 ± 0.24 | -1.33 ± 0.27 |
| GGCUAGCAAUAUUACGAAAC |  | -0.972 ± 0.4 |
| GGCUAGCAAUAUUACGAAUA | -0.326 ± 0.37 | -1.7 ± 0.28 |
| GGCUAGCAAUAUUACGAAUG | -2.26 ± 0.14 | -1.01 ± 0.14 |
| GGCUAGCAAUAUUACGACCU | -0.605 ± 0.081 | 0.0864 ± 0.09 |
| GGCUAGCAAUAUUACGAGAA |  | -0.208 ± 0.37 |
| GGCUAGCAAUAUUACGAUCA | -0.733 ± 0.093 | -0.246 ± 0.088 |
| GGCUAGCAAUAUUACGAUCG | -0.651 ± 0.12 | -0.58 ± 0.15 |
| GGCUAGCAAUAUUACGCAGA | -1.3 ± 0.1 | -0.502 ± 0.11 |
| GGCUAGCAAUAUUACGCGGC | -3.55 ± 0.43 | -2.19 ± 0.46 |
| GGCUAGCAAUAUUACGCUAA | -0.801 ± 0.2 | -0.34 ± 0.15 |
| GGCUAGCAAUAUUACGCUGA | -1.18 ± 0.12 | -0.413 ± 0.13 |
| GGCUAGCAAUAUUACGGAUG | -0.642 ± 0.13 | -0.56 ± 0.15 |
| GGCUAGCAAUAUUACGUAUG | -2.06 ± 0.13 | -0.678 ± 0.13 |
| GGCUAGCAAUAUUACGUGCA | 0.326 ± 0.14 | 0.0604 ± 0.18 |

| Sequence | self-splicing fitness (ln) (30 °C) | self-splicing fitness (ln) (37 °C) |
| --- | --- | --- |
| GGCUAGCAAUAUUACGUGUG | -0.503 ± 0.085 | -0.362 ± 0.083 |
| GGCUAGCAAUAUUACGUUGG | -2.34 ± 0.16 | -3.24 ± 0.32 |
| GGGAAGCAAUAUUACGACUC | -1.17 ± 0.1 | -0.341 ± 0.13 |
| GGGAAGCAAUAUUACGAUUA | -1.56 ± 0.21 | -0.805 ± 0.18 |
| GGGAAGCAAUAUUACGCAAU | -2.67 ± 0.17 | -1.42 ± 0.19 |
| GGGAAGCAAUAUUACGCACG | -0.766 ± 0.16 | -0.128 ± 0.18 |
| GGGAAGCAAUAUUACGCAGA | -3.81 ± 0.42 | -1.65 ± 0.27 |
| GGGAAGCAAUAUUACGCAGC | -1.29 ± 0.14 | -1.12 ± 0.19 |
| GGGAAGCAAUAUUACGCAGU | -2 ± 0.13 | 0.176 ± 0.14 |
| GGGAAGCAAUAUUACGCAUG | -1.38 ± 0.16 | -0.366 ± 0.2 |
| GGGAAGCAAUAUUACGCCAA | -1.66 ± 0.095 | -0.896 ± 0.1 |
| GGGAAGCAAUAUUACGCGCG | -0.57 ± 0.13 | -0.552 ± 0.14 |
| GGGAAGCAAUAUUACGCGGA | -2.82 ± 0.23 | -1.44 ± 0.18 |
| GGGAAGCAAUAUUACGCUUC | -3.32 ± 0.4 |  |
| GGGAAGCAAUAUUACGCUUU | -3.54 ± 0.24 |  |
| GGGAAGCAAUAUUACGGAGG | -2.91 ± 0.41 | -1.99 ± 0.35 |
| GGGAAGCAAUAUUACGGAUA |  | -1.38 ± 0.42 |
| GGGAAGCAAUAUUACGGCCA | -0.752 ± 0.14 | -0.611 ± 0.19 |
| GGGAAGCAAUAUUACGGCGG | -1.2 ± 0.14 | -1.94 ± 0.24 |
| GGGAAGCAAUAUUACGGCUU | -2.11 ± 0.2 | -1.41 ± 0.23 |
| GGGAAGCAAUAUUACGGGGA | -1.49 ± 0.2 | -2.65 ± 0.29 |
| GGGAAGCAAUAUUACGGUCU | -1.58 ± 0.086 | 0.382 ± 0.11 |
| GGGAAGCAAUAUUACGUAAG | -1.09 ± 0.086 | -1.14 ± 0.13 |
| GGGAAGCAAUAUUACGUAGU | -3.38 ± 0.18 | -2.18 ± 0.17 |
| GGGAAGCAAUAUUACGUCCG | -1.81 ± 0.15 | -0.461 ± 0.18 |

| Sequence | self-splicing fitness (ln) (30 °C) | self-splicing fitness (ln) (37 °C) |
| --- | --- | --- |
| GGGAAGCAAUAUUACGUGAU | -2.04 ± 0.1 | -1.83 ± 0.16 |
| GGGAAGCAAUAUUACGUUAA | -2.82 ± 0.18 | -1.73 ± 0.19 |
| GGGCAGCAAUAUUACGAAUC | -0.438 ± 0.15 | -0.491 ± 0.21 |
| GGGCAGCAAUAUUACGAGCA | -1.98 ± 0.1 | -1.37 ± 0.11 |
| GGGCAGCAAUAUUACGAGUG | -3.47 ± 0.24 | -1.64 ± 0.13 |
| GGGCAGCAAUAUUACGCAAC | -0.812 ± 0.16 | -1.56 ± 0.13 |
| GGGCAGCAAUAUUACGCACA | -0.436 ± 0.23 | 0.448 ± 0.23 |
| GGGCAGCAAUAUUACGCGCC | -3.31 ± 0.18 | -2.82 ± 0.28 |
| GGGCAGCAAUAUUACGCGUC | -2.55 ± 0.4 | -1.71 ± 0.31 |
| GGGCAGCAAUAUUACGCUAU | -1.13 ± 0.077 | -0.411 ± 0.094 |
| GGGCAGCAAUAUUACGGAAG | -3.03 ± 0.23 | -1.02 ± 0.17 |
| GGGCAGCAAUAUUACGGAAU | -1.49 ± 0.11 | -1.3 ± 0.19 |
| GGGCAGCAAUAUUACGGAUA | -2.63 ± 0.17 | -1.8 ± 0.13 |
| GGGCAGCAAUAUUACGGGCG | -0.318 ± 0.088 | -0.0663 ± 0.1 |
| GGGCAGCAAUAUUACGGUCC | -4.03 ± 0.46 | -2.14 ± 0.28 |
| GGGCAGCAAUAUUACGGUUC | -1.53 ± 0.11 | -1.93 ± 0.13 |
| GGGCAGCAAUAUUACGUCAU | -0.717 ± 0.066 | 0.195 ± 0.076 |
| GGGCAGCAAUAUUACGUCGA | -0.0821 ± 0.07 | 0.711 ± 0.1 |
| GGGCAGCAAUAUUACGUGCA | -1.62 ± 0.079 | 0.116 ± 0.098 |
| GGGCAGCAAUAUUACGUGGC | -3.12 ± 0.25 | -2.21 ± 0.26 |
| GGGCAGCAAUAUUACGUUAA | -1.19 ± 0.1 | -0.46 ± 0.11 |
| GGGCAGCAAUAUUACGUUUA | -1.09 ± 0.069 | -0.227 ± 0.094 |
| GGGGAGCAAUAUUACGAACG |  | -1.11 ± 0.36 |
